Results on 1 molecule are retold here after PMC11325815 (Journal of Hematology & Oncology, 2024).

The experiment has as its target recombinant extracellular domain (ECD) of human IL1RAP (S21-E359) (Homo sapiens, UniProt Q9NPH3). In words: SPR.

Sequence of recombinant extracellular domain (ECD) of human IL1RAP (S21-E359) (Q9NPH3 21-359): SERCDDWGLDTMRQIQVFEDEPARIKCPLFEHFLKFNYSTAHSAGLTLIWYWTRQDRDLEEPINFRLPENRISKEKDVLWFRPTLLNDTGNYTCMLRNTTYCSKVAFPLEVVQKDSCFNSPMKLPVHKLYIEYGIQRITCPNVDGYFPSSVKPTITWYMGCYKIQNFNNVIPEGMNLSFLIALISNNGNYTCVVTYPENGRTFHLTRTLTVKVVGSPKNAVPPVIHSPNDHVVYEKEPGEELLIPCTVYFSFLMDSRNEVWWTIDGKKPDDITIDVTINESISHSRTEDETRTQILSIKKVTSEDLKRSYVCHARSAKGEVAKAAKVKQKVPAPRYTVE

B1: anti-IL1RAP-24 Fab (Fab, V domains shown)
VH: QVQLQQSGPELVRPGVSVKISCKGSGYTFTDYAMHWVKQSHGKGLEWIGIISTYSGNTKFHQKFKGKATMTVDKSSSTAYMELARLTSEDSAIYYCARQGTWYFDVWGAGTTVTVSS
VL: QIVLTQSPAIMSASPGEKVTMTCSASSTIIYIHWYQQKPGTSPKGWIYDTSKLASGVPARFSGSGSGTSYSLTISSMEAEDAATYYCHQRTSYPWTFGGGTKLEIK
Regarding B1, the Kd came to 2.2 nM.
